According to patent US20120027785A1:

T1: CdtA-CdtC heterodimer (wild-type CdtA-His6 and CdtC-His6)
T1 chain 1: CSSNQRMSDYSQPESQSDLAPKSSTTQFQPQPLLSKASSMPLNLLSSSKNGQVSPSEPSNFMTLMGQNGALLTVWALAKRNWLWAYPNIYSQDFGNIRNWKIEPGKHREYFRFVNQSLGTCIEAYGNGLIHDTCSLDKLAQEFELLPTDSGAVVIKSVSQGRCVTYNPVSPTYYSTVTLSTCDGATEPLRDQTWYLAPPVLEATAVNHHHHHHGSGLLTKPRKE
T1 chain 2: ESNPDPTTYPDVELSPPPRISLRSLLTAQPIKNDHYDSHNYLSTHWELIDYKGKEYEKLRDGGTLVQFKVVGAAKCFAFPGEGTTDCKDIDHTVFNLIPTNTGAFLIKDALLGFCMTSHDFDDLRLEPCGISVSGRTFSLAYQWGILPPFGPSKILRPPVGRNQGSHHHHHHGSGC

B1: CdtB/DNase I hybrid protein (from pETBDN2) (protein)
chain: NLSDFKVATWNLQGSSAVNESKWNINVRQLLSGEQGADILMVQEAGSLPSSAVRTSRVIQHGGTPIEEYTWNLGTRSRPNMVYIYYSRLDVGANRVNLAIVSRRQADEAFIVHSDSSVLQSRPAVGIRIGTDVFFTVHAAPGDAVAEIDALYDVYLDVQEKWGLEDVMLMGDFNAGCSYVRPSQWSSIRLWTSPTFQWLIPDSADTTATPTHCAYDRIVVAGMLLRGAVVPDSALPFNFQAANGLSDQLAQAISDHYPVEVMLKHHHHHHHMLEDPAANKAQKK

Columns and labels:
[1] = molecular target: human CD133 (prominin-1) (human) (UniProt O43490); test: flow cytometry on RPMI 2650 cells, directly PE-conjugated antibody
[2] = molecular target: T1, CdtA-CdtC heterodimer (wild-type …)

Molecule	median fluorescence (MF) [1]	DNA nicking activity of reconstituted heterotrimer preparations [2]
mouse anti-human CD133/1 MAb conjugated to PE (Miltenyi Biotec) (antibody)	64.8	–
B1	–	reconstituted heterotrimer preparations containing the CdtB/DNase I hybrid protein failed to convert supercoiled DNA to linear and relaxed forms
